B1: L640A, M779L (protein)
chain: MDYKDKALNDLRNVYADFDSLPLDFRQILIKDRATLLQKEDVEKKILERQEDAKKYAEYLKQSEIPERISLPNIKRHKGVSISFEETSEDMVLEPRPFIFDGLNIRCFRRETIFSLKNKILNMVKESSSFKNVSRQSVSFMYFKIFNKGKVIASTKSVNIYEDKIDERLEDLCNNFDDVLKKIIDVTYGYESLFVSETYSYVIFYAKSIYFPQPRCVNNWGNNIPNILTFDSFKLFTANKNNVSCIKQCSRFLWQKDFNTLEEMIEYKNGNICIVTPQLHINDVRDIKSFNDIRLYSESPIKTFSVIDNTITYLFYFKEHLGVIFNITKSRHDRRVTKFSPLSKFSDVKNITVCFDIESYFDPEKESNQVNIPFICCASIIYNKVIGNIVDFEGRDCVAQMIEYVVDICGELNISSVELIAHNGGGYDFHYILSSMYNPAAIKNILIRNNSFISFNFAHDGVKFSVKDSYSFLLCSLANASKAFLNEETFKKTDFPHHDLKTADDLYKVYKEWSSVNTEINHVVEKEKLLITSEHIVNFTKNDKSKTLIEWSKDYCRNDVLVLSKVWLEFKNAVEDIFNCELVDQTMTLAGLSYKLFQANMPFDVELRHPNKEDYFNMREALIGGRCISVNGIYKDVLCADVKSLYPASMAFYDQPYGSFKRVSSRPKDELGIYYVRVTPNRNNKSNFFPIRSHNKITYNNFEESTYIAWYTNVDIDIGLSEGHNIEYIPFDSYGNIGYSWSKKGKIFEKYIKDVLYKLKIKYEKQNNKVKRNVIKIILNSLWGKFAQKWVNFEYFIKSEDDIDFESEEAYKIWDTDFMLIKKIKESTYSSKPIQNGVFTLSWARYHMKSIWDAGAKEGAECIYSDTDSIFVHKEHFKKNAKFMLNGLKVPIIGSEVGQLELECEFDKLLCAGKKQYMGFYTYFQDGKPCIKEKKRFKGIPSNYIIPELYAHLLSGADKEAKIQFLKFRREWGSVKGYIENKTVKAT
B2: L640N, I777A (protein)
chain: MDYKDKALNDLRNVYADFDSLPLDFRQILIKDRATLLQKEDVEKKILERQEDAKKYAEYLKQSEIPERISLPNIKRHKGVSISFEETSEDMVLEPRPFIFDGLNIRCFRRETIFSLKNKILNMVKESSSFKNVSRQSVSFMYFKIFNKGKVIASTKSVNIYEDKIDERLEDLCNNFDDVLKKIIDVTYGYESLFVSETYSYVIFYAKSIYFPQPRCVNNWGNNIPNILTFDSFKLFTANKNNVSCIKQCSRFLWQKDFNTLEEMIEYKNGNICIVTPQLHINDVRDIKSFNDIRLYSESPIKTFSVIDNTITYLFYFKEHLGVIFNITKSRHDRRVTKFSPLSKFSDVKNITVCFDIESYFDPEKESNQVNIPFICCASIIYNKVIGNIVDFEGRDCVAQMIEYVVDICGELNISSVELIAHNGGGYDFHYILSSMYNPAAIKNILIRNNSFISFNFAHDGVKFSVKDSYSFLLCSLANASKAFLNEETFKKTDFPHHDLKTADDLYKVYKEWSSVNTEINHVVEKEKLLITSEHIVNFTKNDKSKTLIEWSKDYCRNDVLVLSKVWLEFKNAVEDIFNCELVDQTMTLAGLSYKLFQANMPFDVELRHPNKEDYFNMREALIGGRCISVNGIYKDVLCNDVKSLYPASMAFYDQPYGSFKRVSSRPKDELGIYYVRVTPNRNNKSNFFPIRSHNKITYNNFEESTYIAWYTNVDIDIGLSEGHNIEYIPFDSYGNIGYSWSKKGKIFEKYIKDVLYKLKIKYEKQNNKVKRNVIKAIMNSLWGKFAQKWVNFEYFIKSEDDIDFESEEAYKIWDTDFMLIKKIKESTYSSKPIQNGVFTLSWARYHMKSIWDAGAKEGAECIYSDTDSIFVHKEHFKKNAKFMLNGLKVPIIGSEVGQLELECEFDKLLCAGKKQYMGFYTYFQDGKPCIKEKKRFKGIPSNYIIPELYAHLLSGADKEAKIQFLKFRREWGSVKGYIENKTVKAT
B3: L640G, I777A (protein)
chain: MDYKDKALNDLRNVYADFDSLPLDFRQILIKDRATLLQKEDVEKKILERQEDAKKYAEYLKQSEIPERISLPNIKRHKGVSISFEETSEDMVLEPRPFIFDGLNIRCFRRETIFSLKNKILNMVKESSSFKNVSRQSVSFMYFKIFNKGKVIASTKSVNIYEDKIDERLEDLCNNFDDVLKKIIDVTYGYESLFVSETYSYVIFYAKSIYFPQPRCVNNWGNNIPNILTFDSFKLFTANKNNVSCIKQCSRFLWQKDFNTLEEMIEYKNGNICIVTPQLHINDVRDIKSFNDIRLYSESPIKTFSVIDNTITYLFYFKEHLGVIFNITKSRHDRRVTKFSPLSKFSDVKNITVCFDIESYFDPEKESNQVNIPFICCASIIYNKVIGNIVDFEGRDCVAQMIEYVVDICGELNISSVELIAHNGGGYDFHYILSSMYNPAAIKNILIRNNSFISFNFAHDGVKFSVKDSYSFLLCSLANASKAFLNEETFKKTDFPHHDLKTADDLYKVYKEWSSVNTEINHVVEKEKLLITSEHIVNFTKNDKSKTLIEWSKDYCRNDVLVLSKVWLEFKNAVEDIFNCELVDQTMTLAGLSYKLFQANMPFDVELRHPNKEDYFNMREALIGGRCISVNGIYKDVLCGDVKSLYPASMAFYDQPYGSFKRVSSRPKDELGIYYVRVTPNRNNKSNFFPIRSHNKITYNNFEESTYIAWYTNVDIDIGLSEGHNIEYIPFDSYGNIGYSWSKKGKIFEKYIKDVLYKLKIKYEKQNNKVKRNVIKAIMNSLWGKFAQKWVNFEYFIKSEDDIDFESEEAYKIWDTDFMLIKKIKESTYSSKPIQNGVFTLSWARYHMKSIWDAGAKEGAECIYSDTDSIFVHKEHFKKNAKFMLNGLKVPIIGSEVGQLELECEFDKLLCAGKKQYMGFYTYFQDGKPCIKEKKRFKGIPSNYIIPELYAHLLSGADKEAKIQFLKFRREWGSVKGYIENKTVKAT
B4: L640G, I777K, W814N (protein)
chain: MDYKDKALNDLRNVYADFDSLPLDFRQILIKDRATLLQKEDVEKKILERQEDAKKYAEYLKQSEIPERISLPNIKRHKGVSISFEETSEDMVLEPRPFIFDGLNIRCFRRETIFSLKNKILNMVKESSSFKNVSRQSVSFMYFKIFNKGKVIASTKSVNIYEDKIDERLEDLCNNFDDVLKKIIDVTYGYESLFVSETYSYVIFYAKSIYFPQPRCVNNWGNNIPNILTFDSFKLFTANKNNVSCIKQCSRFLWQKDFNTLEEMIEYKNGNICIVTPQLHINDVRDIKSFNDIRLYSESPIKTFSVIDNTITYLFYFKEHLGVIFNITKSRHDRRVTKFSPLSKFSDVKNITVCFDIESYFDPEKESNQVNIPFICCASIIYNKVIGNIVDFEGRDCVAQMIEYVVDICGELNISSVELIAHNGGGYDFHYILSSMYNPAAIKNILIRNNSFISFNFAHDGVKFSVKDSYSFLLCSLANASKAFLNEETFKKTDFPHHDLKTADDLYKVYKEWSSVNTEINHVVEKEKLLITSEHIVNFTKNDKSKTLIEWSKDYCRNDVLVLSKVWLEFKNAVEDIFNCELVDQTMTLAGLSYKLFQANMPFDVELRHPNKEDYFNMREALIGGRCISVNGIYKDVLCGDVKSLYPASMAFYDQPYGSFKRVSSRPKDELGIYYVRVTPNRNNKSNFFPIRSHNKITYNNFEESTYIAWYTNVDIDIGLSEGHNIEYIPFDSYGNIGYSWSKKGKIFEKYIKDVLYKLKIKYEKQNNKVKRNVIKKIMNSLWGKFAQKWVNFEYFIKSEDDIDFESEEAYKINDTDFMLIKKIKESTYSSKPIQNGVFTLSWARYHMKSIWDAGAKEGAECIYSDTDSIFVHKEHFKKNAKFMLNGLKVPIIGSEVGQLELECEFDKLLCAGKKQYMGFYTYFQDGKPCIKEKKRFKGIPSNYIIPELYAHLLSGADKEAKIQFLKFRREWGSVKGYIENKTVKAT
B5: L640G, I775A (protein)
chain: MDYKDKALNDLRNVYADFDSLPLDFRQILIKDRATLLQKEDVEKKILERQEDAKKYAEYLKQSEIPERISLPNIKRHKGVSISFEETSEDMVLEPRPFIFDGLNIRCFRRETIFSLKNKILNMVKESSSFKNVSRQSVSFMYFKIFNKGKVIASTKSVNIYEDKIDERLEDLCNNFDDVLKKIIDVTYGYESLFVSETYSYVIFYAKSIYFPQPRCVNNWGNNIPNILTFDSFKLFTANKNNVSCIKQCSRFLWQKDFNTLEEMIEYKNGNICIVTPQLHINDVRDIKSFNDIRLYSESPIKTFSVIDNTITYLFYFKEHLGVIFNITKSRHDRRVTKFSPLSKFSDVKNITVCFDIESYFDPEKESNQVNIPFICCASIIYNKVIGNIVDFEGRDCVAQMIEYVVDICGELNISSVELIAHNGGGYDFHYILSSMYNPAAIKNILIRNNSFISFNFAHDGVKFSVKDSYSFLLCSLANASKAFLNEETFKKTDFPHHDLKTADDLYKVYKEWSSVNTEINHVVEKEKLLITSEHIVNFTKNDKSKTLIEWSKDYCRNDVLVLSKVWLEFKNAVEDIFNCELVDQTMTLAGLSYKLFQANMPFDVELRHPNKEDYFNMREALIGGRCISVNGIYKDVLCGDVKSLYPASMAFYDQPYGSFKRVSSRPKDELGIYYVRVTPNRNNKSNFFPIRSHNKITYNNFEESTYIAWYTNVDIDIGLSEGHNIEYIPFDSYGNIGYSWSKKGKIFEKYIKDVLYKLKIKYEKQNNKVKRNVAKIIMNSLWGKFAQKWVNFEYFIKSEDDIDFESEEAYKIWDTDFMLIKKIKESTYSSKPIQNGVFTLSWARYHMKSIWDAGAKEGAECIYSDTDSIFVHKEHFKKNAKFMLNGLKVPIIGSEVGQLELECEFDKLLCAGKKQYMGFYTYFQDGKPCIKEKKRFKGIPSNYIIPELYAHLLSGADKEAKIQFLKFRREWGSVKGYIENKTVKAT

System: p1-encoded leu2 (Q180*)
Assay: Large-scale p1 fluctuation tests of p1-encoded leu2 (Q180*), per-base substitution rate
Format: cell-based, S. cerevisiae
Details: per-base substitution rate, p1-encoded leu2 (Q180*), large-scale fluctuation test
From the text: All three TP-DNAP1 libraries were screened through small scale p1 fluctuation tests in a metastable S. cerevisiae strain, OR-Y24. OR-Y24 contains w.t. p1 and recombinant p1 that lacks w.t. TP-DNAP1, and instead, encodes a standardized fluorescence reporter of p1 copy number (Table 1), and a disabled version of the LEU2 selection marker (leu2 (Q180*)). As described previously (Ravikumar et al., 2014), leu2 (Q180*) contains a C→T mutation at base 538 in LEU2 at a site permissive to all single point mutants that generate missense mutations. Reversion to functional LEU2 can be detected on medium lacking leucine.
Large-scale fluctuation tests of p1-encoded leu2 (Q180*) were performed to precisely determine per-base substitution rates for individually cloned or isolated TP-DNAP1 variants. Large-scale p1 fluctuation tests are performed similarly to small-scale p1 fluctuation tests, with several modifications. First, large-scale p1 fluctuation tests were typically performed with 36-48 replicates. For highly error-prone TP-DNAP1s obtained from later rounds of screening, fewer replicates (3-16) were used, which is sufficient for similar precision (Foster et al., 2006). Second, p1 copy number was determined by the flow cytometry method, described below. Third, cell titers were measured for each fluctuation test to estimate the average number of cells per culture. Cell resuspensions were diluted and plated on solid SC-UH medium, and colony counts were determined after incubation at 30° C. for 2-3 days. Alternatively, cell resuspensions were diluted and subject to an event-count measurement via flow cytometry. Fourth, inoculums of highly error-prone TP-DNAP 1 s occasionally contained pre-existing mutants, despite the 1:10,000 dilution, so mutant frequencies were estimated by plating pre-cultures on solid SC-UHLW, pH 5.8 medium. Plates were incubated for 2-3 days, in parallel with cultures grown for fluctuation tests. Pre-culture mutant titers were counted to estimate the number of replicates in the fluctuation test expected to contain pre-existing mutants (n). Revertants were counted from all replicates of the fluctuation tests, counts were sorted, and n replicates with the highest counts were omitted from calculations.
To calculate per-base substitution rates, fluctuation data were analyzed by the maximum likelihood method, implemented using newton.LD.plating in rSalvador 1.7 (Zheng, 2017). Phenotypic mutation rates were calculated by normalizing to the average number of cells per culture. Phenotypic mutation rates were divided by the measured p1 copy number and by the number of ways leu2 (Q180*) can revert to LEU2 (2.33 for the ochre codon) to yield per-base substitution rates. 95% confidence intervals were similarly scaled by these factors. All data related to large-scale p1 fluctuation tests are fully described in Table 2.

Molecule	Mutation rate (s.p.b.)
B1	2.79 × 10^−9 s.p.b.
B2	3.04 × 10^−8 s.p.b.
B3	9.28 × 10^−8 s.p.b.
B4	2.63 × 10^−7 s.p.b.
B5	1.81 × 10^−8 s.p.b.
